Results published in publication PMC4608764, “The Q Motif Is Involved in DNA Binding but Not ATP Binding in ChlR1 Helicase” (PLoS ONE, 2015).
Values belong to the molecule of their own block, whether it stands above or below them.

Tests used:
ChlR1 (DDX11), = target: T1, ChlR1 (DDX11), (Homo sapiens, UniProt Q96FC9, Q23A); assay: nitrocellulose filter-binding (dot blot) assay
T1 sequence (Q96FC9 1-906 isoform Q96FC9-2 Q23A): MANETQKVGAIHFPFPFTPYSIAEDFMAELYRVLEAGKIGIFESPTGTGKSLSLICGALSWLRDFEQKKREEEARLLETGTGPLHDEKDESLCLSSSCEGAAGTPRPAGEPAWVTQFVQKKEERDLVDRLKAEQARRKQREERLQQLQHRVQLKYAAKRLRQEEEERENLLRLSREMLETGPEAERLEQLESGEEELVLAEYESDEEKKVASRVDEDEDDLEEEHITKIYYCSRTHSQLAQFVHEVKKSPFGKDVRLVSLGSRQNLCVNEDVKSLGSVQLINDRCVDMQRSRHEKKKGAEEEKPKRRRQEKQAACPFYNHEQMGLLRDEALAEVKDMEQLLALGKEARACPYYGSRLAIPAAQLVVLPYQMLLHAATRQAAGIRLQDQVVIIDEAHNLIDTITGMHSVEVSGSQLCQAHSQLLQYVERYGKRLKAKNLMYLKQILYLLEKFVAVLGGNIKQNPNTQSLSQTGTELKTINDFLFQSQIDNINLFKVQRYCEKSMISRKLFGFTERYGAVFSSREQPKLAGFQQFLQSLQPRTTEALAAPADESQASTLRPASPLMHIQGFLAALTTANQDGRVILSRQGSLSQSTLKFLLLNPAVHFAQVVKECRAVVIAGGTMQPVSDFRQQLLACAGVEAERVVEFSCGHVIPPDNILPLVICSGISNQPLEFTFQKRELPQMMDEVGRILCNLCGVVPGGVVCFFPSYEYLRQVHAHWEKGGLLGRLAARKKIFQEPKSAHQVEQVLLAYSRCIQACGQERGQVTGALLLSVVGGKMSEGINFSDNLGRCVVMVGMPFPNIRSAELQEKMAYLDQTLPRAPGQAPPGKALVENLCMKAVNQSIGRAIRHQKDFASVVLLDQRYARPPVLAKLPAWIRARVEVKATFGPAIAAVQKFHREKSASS

ChlR1 (DDX11), ChlR1-WT = target: T2, ChlR1 (DDX11), ChlR1-WT (Homo sapiens, UniProt Q96FC9); assay: nitrocellulose filter-binding (dot blot) assay
T2 sequence (Q96FC9 1-906 isoform Q96FC9-2): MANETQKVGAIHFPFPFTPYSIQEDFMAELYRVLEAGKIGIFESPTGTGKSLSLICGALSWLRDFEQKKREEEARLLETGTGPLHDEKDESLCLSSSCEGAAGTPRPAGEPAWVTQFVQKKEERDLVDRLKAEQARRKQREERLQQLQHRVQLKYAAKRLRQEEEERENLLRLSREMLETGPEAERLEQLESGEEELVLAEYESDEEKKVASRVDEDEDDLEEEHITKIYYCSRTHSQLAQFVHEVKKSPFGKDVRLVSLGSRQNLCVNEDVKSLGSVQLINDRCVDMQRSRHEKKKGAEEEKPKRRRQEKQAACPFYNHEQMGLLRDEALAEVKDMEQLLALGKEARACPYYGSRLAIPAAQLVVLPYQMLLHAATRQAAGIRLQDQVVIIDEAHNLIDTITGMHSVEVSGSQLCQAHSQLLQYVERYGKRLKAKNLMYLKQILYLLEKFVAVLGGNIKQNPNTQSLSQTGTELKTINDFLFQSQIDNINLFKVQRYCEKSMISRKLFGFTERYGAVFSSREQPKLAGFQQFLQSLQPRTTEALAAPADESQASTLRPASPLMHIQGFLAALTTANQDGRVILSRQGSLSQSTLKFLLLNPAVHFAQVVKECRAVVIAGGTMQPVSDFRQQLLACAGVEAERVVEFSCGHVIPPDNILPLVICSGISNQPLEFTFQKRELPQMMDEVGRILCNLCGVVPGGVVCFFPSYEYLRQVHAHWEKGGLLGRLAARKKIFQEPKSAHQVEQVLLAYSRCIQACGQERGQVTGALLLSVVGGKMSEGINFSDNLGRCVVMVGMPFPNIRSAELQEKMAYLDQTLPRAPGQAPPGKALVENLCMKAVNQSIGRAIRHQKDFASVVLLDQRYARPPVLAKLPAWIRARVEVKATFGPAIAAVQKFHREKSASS

[1] = substrate: Nc1ncnc2c1ncn2[C@@H]1O[C@H](COP(=O)(O)OP(=O)(O)OP(=O)(O)O)[C@@H](O)[C@H]1O; assay: [γ-32P]ATP hydrolysis, thin-layer chromatography; type: biochemical, Homo sapiens; conditions: 2.1 nM M13mp18 ssDNA, ATP 31-4000 μM, 1 mM Mg acetate, pH 7.5, 37 °C, 30 min, kcat measured separately at 8.5 mM ATP
ChlR1-WT [2] = target: T3, ChlR1-WT (Homo sapiens, UniProt Q96FC9-2 1-906); assay: fluorescence anisotropy; apparent Kd, no ATP, 21 C, 10 nM DNA; EMSA: 40 mM Tris-HCl pH 7.4, 25 mM KCl, 5 mM MgCl2, 2 mM DTT, 2% glycerol, 100 ng/uL BSA, no ATP, 0.5 nM DNA, room temp 30 min; anisotropy: same buffer, 21 C; filter binding: 25 mM Tris-HCl pH 7.5, 25 mM KOAc, 1 mM Mg(OAc)2, 1 mM DTT, 100 ug/mL BSA, 37 C 30 min; conditions: protein: recombinant; tags: FLAG; fork, 19 bp duplex; 5' ssDNA tail 26 nt (DC26) and 3' ssDNA tail 25 nt (TSTEM25)
T3 sequence: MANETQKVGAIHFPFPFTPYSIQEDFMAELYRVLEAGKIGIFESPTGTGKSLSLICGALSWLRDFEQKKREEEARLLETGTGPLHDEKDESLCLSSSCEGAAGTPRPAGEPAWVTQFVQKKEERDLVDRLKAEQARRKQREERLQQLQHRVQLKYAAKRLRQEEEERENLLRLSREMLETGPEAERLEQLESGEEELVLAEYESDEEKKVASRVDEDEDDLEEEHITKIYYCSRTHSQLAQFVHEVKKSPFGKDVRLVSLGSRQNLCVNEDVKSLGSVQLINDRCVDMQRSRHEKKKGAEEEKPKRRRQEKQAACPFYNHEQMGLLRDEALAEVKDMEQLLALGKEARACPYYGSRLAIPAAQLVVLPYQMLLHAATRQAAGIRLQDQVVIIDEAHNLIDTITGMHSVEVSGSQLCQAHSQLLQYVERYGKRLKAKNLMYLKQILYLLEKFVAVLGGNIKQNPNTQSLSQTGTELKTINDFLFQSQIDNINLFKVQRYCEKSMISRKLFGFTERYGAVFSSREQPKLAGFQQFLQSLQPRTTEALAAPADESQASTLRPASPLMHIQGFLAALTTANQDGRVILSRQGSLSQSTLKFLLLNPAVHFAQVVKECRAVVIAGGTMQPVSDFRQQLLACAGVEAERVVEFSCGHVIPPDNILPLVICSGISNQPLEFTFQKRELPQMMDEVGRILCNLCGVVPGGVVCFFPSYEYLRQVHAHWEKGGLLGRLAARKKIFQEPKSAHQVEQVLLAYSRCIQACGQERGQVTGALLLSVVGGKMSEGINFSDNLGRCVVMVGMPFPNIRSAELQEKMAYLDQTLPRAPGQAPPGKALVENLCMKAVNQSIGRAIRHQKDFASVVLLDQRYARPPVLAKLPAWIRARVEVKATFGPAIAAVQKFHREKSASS

ChlR1-Q23A [3] = target: T4, ChlR1-Q23A (Homo sapiens, UniProt Q96FC9-2 1-906, Q23A); assay: as above; conditions: protein: recombinant; tags: FLAG; fork, 19 bp duplex; 5' ssDNA tail 26 nt (DC26) and 3' ssDNA tail 25 nt (TSTEM25)
T4 sequence: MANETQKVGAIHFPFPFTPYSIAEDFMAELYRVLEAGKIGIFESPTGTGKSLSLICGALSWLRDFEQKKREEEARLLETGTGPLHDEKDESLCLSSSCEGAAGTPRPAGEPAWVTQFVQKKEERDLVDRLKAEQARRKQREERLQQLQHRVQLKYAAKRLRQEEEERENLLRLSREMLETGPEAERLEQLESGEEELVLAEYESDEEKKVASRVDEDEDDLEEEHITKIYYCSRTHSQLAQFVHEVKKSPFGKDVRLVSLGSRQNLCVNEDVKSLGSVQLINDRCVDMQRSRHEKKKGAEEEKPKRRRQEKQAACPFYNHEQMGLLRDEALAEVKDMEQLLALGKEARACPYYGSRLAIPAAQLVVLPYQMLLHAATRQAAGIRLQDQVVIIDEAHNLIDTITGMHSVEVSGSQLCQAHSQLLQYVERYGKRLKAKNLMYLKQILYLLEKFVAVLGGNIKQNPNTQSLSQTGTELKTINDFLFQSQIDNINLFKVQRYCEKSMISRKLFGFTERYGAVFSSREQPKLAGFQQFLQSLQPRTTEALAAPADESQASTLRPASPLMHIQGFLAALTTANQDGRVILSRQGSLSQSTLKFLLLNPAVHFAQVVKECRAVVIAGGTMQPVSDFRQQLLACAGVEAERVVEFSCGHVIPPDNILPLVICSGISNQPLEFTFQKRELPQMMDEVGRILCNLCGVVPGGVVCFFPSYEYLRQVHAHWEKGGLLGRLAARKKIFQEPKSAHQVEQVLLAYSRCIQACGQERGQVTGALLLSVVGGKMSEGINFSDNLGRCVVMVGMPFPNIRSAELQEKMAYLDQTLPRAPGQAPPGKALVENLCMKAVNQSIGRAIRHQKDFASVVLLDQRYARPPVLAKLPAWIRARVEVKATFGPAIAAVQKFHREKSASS

ChlR1-WT [4] = target: T3, ChlR1-WT; assay: filter binding; 37 C, 1 mM Mg(OAc)2; EMSA: 40 mM Tris-HCl pH 7.4, 25 mM KCl, 5 mM MgCl2, 2 mM DTT, 2% glycerol, 100 ng/uL BSA, no ATP, 0.5 nM DNA, room temp 30 min; anisotropy: same buffer, 21 C; filter binding: 25 mM Tris-HCl pH 7.5, 25 mM KOAc, 1 mM Mg(OAc)2, 1 mM DTT, 100 ug/mL BSA, 37 C 30 min; conditions: protein: recombinant; tags: FLAG; label: 32P (5' end); fork, 19 bp duplex; 5' ssDNA tail 26 nt (DC26) and 3' ssDNA tail 25 nt (TSTEM25)
ChlR1-Q23A [5] = target: T4, ChlR1-Q23A; assay: as above; conditions: protein: recombinant; tags: FLAG; label: 32P (5' end); fork, 19 bp duplex; 5' ssDNA tail 26 nt (DC26) and 3' ssDNA tail 25 nt (TSTEM25)

Kd (ChlR1 (DDX11),): 43.8 nM
Kd (ChlR1 (DDX11), ChlR1-WT): 51.8 nM
Molecule: Nc1ncnc2c1ncn2[C@@H]1O[C@H](COP(=O)(O)OP(=O)(O)OP(=O)(O)O)[C@@H](O)[C@H]1O [ATP]

B1: ChlR1 (DDX11), ChlR1-WT (Homo sapiens) (protein)
chain: MANETQKVGAIHFPFPFTPYSIQEDFMAELYRVLEAGKIGIFESPTGTGKSLSLICGALSWLRDFEQKKREEEARLLETGTGPLHDEKDESLCLSSSCEGAAGTPRPAGEPAWVTQFVQKKEERDLVDRLKAEQARRKQREERLQQLQHRVQLKYAAKRLRQEEEERENLLRLSREMLETGPEAERLEQLESGEEELVLAEYESDEEKKVASRVDEDEDDLEEEHITKIYYCSRTHSQLAQFVHEVKKSPFGKDVRLVSLGSRQNLCVNEDVKSLGSVQLINDRCVDMQRSRHEKKKGAEEEKPKRRRQEKQAACPFYNHEQMGLLRDEALAEVKDMEQLLALGKEARACPYYGSRLAIPAAQLVVLPYQMLLHAATRQAAGIRLQDQVVIIDEAHNLIDTITGMHSVEVSGSQLCQAHSQLLQYVERYGKRLKAKNLMYLKQILYLLEKFVAVLGGNIKQNPNTQSLSQTGTELKTINDFLFQSQIDNINLFKVQRYCEKSMISRKLFGFTERYGAVFSSREQPKLAGFQQFLQSLQPRTTEALAAPADESQASTLRPASPLMHIQGFLAALTTANQDGRVILSRQGSLSQSTLKFLLLNPAVHFAQVVKECRAVVIAGGTMQPVSDFRQQLLACAGVEAERVVEFSCGHVIPPDNILPLVICSGISNQPLEFTFQKRELPQMMDEVGRILCNLCGVVPGGVVCFFPSYEYLRQVHAHWEKGGLLGRLAARKKIFQEPKSAHQVEQVLLAYSRCIQACGQERGQVTGALLLSVVGGKMSEGINFSDNLGRCVVMVGMPFPNIRSAELQEKMAYLDQTLPRAPGQAPPGKALVENLCMKAVNQSIGRAIRHQKDFASVVLLDQRYARPPVLAKLPAWIRARVEVKATFGPAIAAVQKFHREKSASS
Km [1]: 415.7 ± 58.4 µM
kcat [1]: 1073.3 ± 46.7 s⁻¹

B2: Forked duplex (DC26/TSTEM25), fluorescein (dsDNA)
DNA 1: TTTTTTTTTTTTTTTTTTTTTTCCCAGTAAAACGACGGCCAGTGC
DNA 2: GCACTGGCCGTCGTTTTACGGTCGTGACTGGGAAAACCCTGGCG
Kd (ChlR1-WT [2]): 520 nM
Kd (ChlR1-Q23A [3]): 1000 nM

B3: Forked duplex (DC26/TSTEM25) (dsDNA)
DNA 1: TTTTTTTTTTTTTTTTTTTTTTCCCAGTAAAACGACGGCCAGTGC
DNA 2: GCACTGGCCGTCGTTTTACGGTCGTGACTGGGAAAACCCTGGCG
Kd (ChlR1-WT [4]): 106 nM
Kd (ChlR1-Q23A [5]): 398 nM
